Values quoted from earlier work, collected in paper PMC9797105.
pKd: −log10 of the molar value.

Assays:
[1] = biological target: TRP channel PBM (Drosophila melanogaster) (UniProt P19334)
[2] = biological target: TARP γ-8 PBM (UniProt Q8WXS5)
Chain of UniProt Q8WXS5 (Q8WXS5 whole entry, looked up): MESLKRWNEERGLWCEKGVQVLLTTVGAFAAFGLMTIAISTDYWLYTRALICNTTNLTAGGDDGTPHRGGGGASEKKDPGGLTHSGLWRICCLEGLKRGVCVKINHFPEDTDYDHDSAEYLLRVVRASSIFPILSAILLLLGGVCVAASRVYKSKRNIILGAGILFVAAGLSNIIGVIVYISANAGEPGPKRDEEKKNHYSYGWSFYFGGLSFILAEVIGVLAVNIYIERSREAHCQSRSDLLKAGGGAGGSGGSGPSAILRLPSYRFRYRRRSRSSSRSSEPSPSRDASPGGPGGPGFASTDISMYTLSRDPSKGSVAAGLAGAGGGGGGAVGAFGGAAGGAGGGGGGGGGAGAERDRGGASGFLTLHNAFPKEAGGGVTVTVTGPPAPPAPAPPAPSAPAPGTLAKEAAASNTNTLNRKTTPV

pKd [1] | pKd [2] | Substance
6.89 |  | INAD PDZ3 (from UniProt Q24008)
 | 4.40 | PSD-95 PDZ2 (from UniProt P78352)
